Experimental data: PMC11375898 (Frontiers in Pharmacology, 2024)
Read-outs that look alike come from different tables or passages of the source.

What was measured:
[1] = in vivo
Description: The duration of each dose was 0.06 mg for three consecutive days, 0.1 mg for three consecutive days, 0.14 mg for five consecutive days, and 0.2 mg for five consecutive days (Figure 1).
Blood samples (3 mL) were collected in vacuum tubes containing EDTA-K2 at D-1 and at pre-dosing (0 h) and 5, 10, 15, 20, 25, 30, 40, 50, 60, 90, 120, 150 and 180 min after first administration on D6, D7, D11, D12, and D16. PK blood samples were collected at the time point corresponding to the administration date for blank baseline correction on D-1. The vacuum tubes were pre-cooled in the refrigerator (2°C–8°C) for at least 0.5–1 h before use. As the stabilizer, 30 μL DPP IV inhibitor (10 μL/mL) was immediately added into the blood. The stabilizer-spiked blood samples were kept with wet ice during transportation and were centrifuged at 3,000 rpm for 10 min at 4°C to separate the plasma. Samples were stored at −80°C until analysis.
The standard curve ranged from 2.0 to 100.0 pM. The accuracy of intra-batch and inter-batch assays values were −16.7%–20.0% and −6.7%–3.2%, respectively.
The primary PK parameters were maximum observed concentration (Cmax), the area under concentration-time curve from 0 to the last measurable concentration (AUC0-t) and AUC0-inf, whereas the secondary PK parameters were median time to reach maximum concentration (Tmax), terminal half-life time (t1/2), Vz/F, apparent clearance rate (CL/F), terminal elimination rate (λz) and accumulation index (Rac).
Paired t-tests were used to compare the primary PK parameters between the 0.14 mg and 0.2 mg dose groups. Three doses (0.1, 0.14 and 0.2 mg) were evaluated for proportional dose-response relationships using power model. […] Statistical analysis was performed using SAS 9.4 (SAS Institute, Cary, NC, United States).

[2] = test system: adult subjects with overweight/obesity; conditions: in vivo
Description: (§1) This single center, open, multiple ascending dose study was conducted at the Phase I Clinical Research Center of the Affiliated Hospital of Qingdao University, Qingdao, China. […] The duration of each dose was 0.06 mg for three consecutive days, 0.1 mg for three consecutive days, 0.14 mg for five consecutive days, and 0.2 mg for five consecutive days (Figure 1). All volunteers were hospitalized 2 days before the first dosing and placed on a standardized diet during hospitalization. All participants were required to fast overnight before the first dosing.
(§2) Safety assessments were conducted by monitoring physical examinations, vital signs (blood pressure, pulse rate, body temperature and respiratory rate), 12-lead ECG, clinical laboratory assays (blood routine, blood biochemistry and urine routine) and AEs. AEs were evaluated by the investigator throughout the study and the severity of AEs was defined in accordance with the Common Terminology Criteria for the Classification of Adverse Events of the National Cancer Institute (NCI CTCAE) version 5.0.

[3] = parameters: method as in Chen et al., 2024; conditions: week 16, ref Chen et al., 2024, cited from earlier work
[4] = human, in vivo; cited from earlier work
[5] = test system: adult subjects with overweight/obesity; test: Safety assessment (adverse events, NCI CTCAE 5.0), phase I multiple ascending dose trial; conditions: N = 16
Description: as §1, §2

[6] = Total, 0.06-0.2 mg sc three times daily

For “recombinant human GLP-1 (7-36) [beinaglutide]”, the “Estimate of slope β1, Ln (AUC0-inf), proportional dose-response (power model)” value [1] was 1.01, the “Estimate of slope β1, Ln (AUC0-t,adj), proportional dose-response (power model)” value [1] was 1.13 and the “Estimate of slope β1, Ln (Cmax), proportional dose-response (power model)” value [1] was 1.13. For the same substance, the “arithmetic mean of CL/Fadj” value ([1]; sc) was 6.81 to 7.66 L/min, the “arithmetic mean of Vz/Fadj” value ([1]; sc) was 292.55 to 401.87 L and the “arithmetic mean of t1/2, adj” value ([1]; sc) was 29.64 to 42.35 min. The “median of Tmax” value ([1]; sc) was 10 to 15 min, the “median of Tmax,adj” value ([1]; sc) was 10 to 15 min and the “time to relief of nausea” value [2] was at most 1 h. For the same substance, the mean weight reduction ([3]; female participants) was −6.9%, the mean weight reduction ([3]; male participants) was −4.7% and the “apparent volume of distribution (Vz/F)” value [4] was 379 L. The “AEs leading to death, % of subjects with event” value ([5]; 0.06 mg sc three times daily) was 0.0%, the “AEs leading to death, E (number of events)” value ([5]; 0.06 mg sc three times daily) was 0 and the “AEs leading to death, n (subjects with event)” value ([5]; 0.06 mg sc three times daily) was 0. For the same substance, the “Drug-related AEs leading to death, % of subjects with event” value (shortened to “Drug-related AEs leading to death, %”) ([5]; 0.06 mg sc three times daily) was 0.0%, the “Drug-related AEs leading to death, E (number of events)” value (“Drug-related AEs leading to death, E” below) ([5]; 0.06 mg sc three times daily) was 0 and the “Drug-related AEs leading to death, n (subjects with event)” value (from here on “Drug-related AEs leading to death, n”) ([5]; 0.06 mg sc three times daily) was 0. For the same substance, the “AEs leading to death, % of subjects with event” value ([5]; 0.1 mg sc three times daily) was 0.0%, the “AEs leading to death, E (number of events)” value ([5]; 0.1 mg sc three times daily) was 0 and the “AEs leading to death, n (subjects with event)” value ([5]; 0.1 mg sc three times daily) was 0. The “Drug-related AEs leading to death, %” value ([5]; 0.1 mg sc three times daily) was 0.0%, the “Drug-related AEs leading to death, E” value ([5]; 0.1 mg sc three times daily) was 0 and the “Drug-related AEs leading to death, n” value ([5]; 0.1 mg sc three times daily) was 0. For the same substance, the “AEs leading to death, % of subjects with event” value ([5]; 0.14 mg sc three times daily) was 0.0%, the “AEs leading to death, E (number of events)” value ([5]; 0.14 mg sc three times daily) was 0 and the “AEs leading to death, n (subjects with event)” value ([5]; 0.14 mg sc three times daily) was 0. For the same substance, the “Drug-related AEs leading to death, %” value ([5]; 0.14 mg sc three times daily) was 0.0%, the “Drug-related AEs leading to death, E” value ([5]; 0.14 mg sc three times daily) was 0 and the “Drug-related AEs leading to death, n” value ([5]; 0.14 mg sc three times daily) was 0. For the same substance, the “AEs leading to death, % of subjects with event” value ([5]; 0.2 mg sc three times daily) was 0.0%, the “AEs leading to death, E (number of events)” value ([5]; 0.2 mg sc three times daily) was 0 and the “AEs leading to death, n (subjects with event)” value ([5]; 0.2 mg sc three times daily) was 0. The “Drug-related AEs leading to death, %” value ([5]; 0.2 mg sc three times daily) was 0.0%, the “Drug-related AEs leading to death, E” value ([5]; 0.2 mg sc three times daily) was 0 and the “Drug-related AEs leading to death, n” value ([5]; 0.2 mg sc three times daily) was 0. The “AEs leading to death, % of subjects with event” value [5, 6] was 0.0%, the “AEs leading to death, E (number of events)” value [5, 6] was 0 and the “AEs leading to death, n (subjects with event)” value [5, 6] was 0. For the same substance, the “Drug-related AEs leading to death, %” value [5, 6] was 0.0%, the “Drug-related AEs leading to death, E” value [5, 6] was 0 and the “Drug-related AEs leading to death, n” value [5, 6] was 0.
